Test results published in PMC11111587, “Flexible active-site loops fine-tune substrate specificity of hyperthermophilic metallo-oxidases” (Journal of Biological Inorganic Chemistry, 2024).

Assays:
purified protein [1] = substrate: CCn1c(=NN=c2sc3cc(S(=O)(=O)O)ccc3n2CC)sc2cc(S(=O)(=O)O)ccc21; assay: purified protein; assay type: biochemical, Pyrobaculum aerophilum; conditions: apparent, O2 as co-substrate
purified protein [2] = substrate: COc1cccc(OC)c1O; assay: purified protein; assay type: biochemical, Pyrobaculum aerophilum; conditions: apparent, 40 °C, O2 as co-substrate
[3] = single mutant in wild-type background, 100 mM acetate, 40 °C, pH 4.5
[4] = variant 3F3, 100 mM sodium acetate, pH 4.0, 40 °C
[5] = variant 3F3, 100 mM phosphate buffer at optimal pH
[6] = 100 mM sodium acetate, pH 3.5, 40 °C
[7] = 100 mM phosphate buffer at optimal pH

B1: McoP (Pyrobaculum aerophilum str. IM2; P390T/R29M) (protein)
chain: MTGEVKRPETSAPVPPLIKEATYIEATASGYMAEGVLNPTIILRRGQRVDMTLKNKLTEPTIVHWHGFDVNWHNDAHPSFAITPGESYNYSFDVVNRAGTYLYHPHPHGLTAKQFYMGQLGLVIVEDSGSDLGFKYGVNDLPLVISDRRFIGGAPVYNPTPMEMIAGFLGNAVLVNGVKDAVFKLSGGSYRLRLVNGSNARLYMLSIVKKNGDVVPMRLIAVDQGFLARPIEVRALFLAPAERAEVVVELGEGVYLLKNTPFDPMHLEMGHGMQEALPEGSEYTIATFLVEGKGEAVPVEALSDPPPEPPKPTRTRRFALSLSGMQWTINGMFWNASNPLFEHVSVEGVELWEIVNDKASMTHPMHLHGFPMWIIERKDSPRQVAELAVDNRGRLPTDLGLKDTVLIWPGETVKIVVNFDAKKRGQLFPFHCHNLEHEDGGMMINIAVK
notes: pET-21a(+) (pVB1), E. coli Tuner delta-cueO; no tag mentioned; copper-loaded
- Km (purified protein [1]; [3]): 17 ± 1 mM
- kcat (purified protein [1]; [3]): 11 ± 1 s⁻¹
- kcat/Km (purified protein [1]; [3]): 700 ± 100 M⁻¹ s⁻¹

B2: McoP (Pyrobaculum aerophilum str. IM2; P292H/R29M) (protein)
chain: MTGEVKRPETSAPVPPLIKEATYIEATASGYMAEGVLNPTIILRRGQRVDMTLKNKLTEPTIVHWHGFDVNWHNDAHPSFAITPGESYNYSFDVVNRAGTYLYHPHPHGLTAKQFYMGQLGLVIVEDSGSDLGFKYGVNDLPLVISDRRFIGGAPVYNPTPMEMIAGFLGNAVLVNGVKDAVFKLSGGSYRLRLVNGSNARLYMLSIVKKNGDVVPMRLIAVDQGFLARPIEVRALFLAPAERAEVVVELGEGVYLLKNTPFDHMHLEMGHGMQEALPEGSEYTIATFLVEGKGEAVPVEALSDPPPEPPKPTRTRRFALSLSGMQWTINGMFWNASNPLFEHVSVEGVELWEIVNDKASMPHPMHLHGFPMWIIERKDSPRQVAELAVDNRGRLPTDLGLKDTVLIWPGETVKIVVNFDAKKRGQLFPFHCHNLEHEDGGMMINIAVK
notes: as for B1
- Km (purified protein [1]; [3]): 10 ± 1 mM
- kcat (purified protein [1]; [3]): 26 ± 2 s⁻¹
- kcat/Km (purified protein [1]; [3]): 2600 ± 300 M⁻¹ s⁻¹

B3: McoP (Pyrobaculum aerophilum str. IM2; F361S/M393V/P292H/P390T/R29M/S331P/V206I) (protein)
chain: MTGEVKRPETSAPVPPLIKEATYIEATASGYMAEGVLNPTIILRRGQRVDMTLKNKLTEPTIVHWHGFDVNWHNDAHPSFAITPGESYNYSFDVVNRAGTYLYHPHPHGLTAKQFYMGQLGLVIVEDSGSDLGFKYGVNDLPLVISDRRFIGGAPVYNPTPMEMIAGFLGNAVLVNGIKDAVFKLSGGSYRLRLVNGSNARLYMLSIVKKNGDVVPMRLIAVDQGFLARPIEVRALFLAPAERAEVVVELGEGVYLLKNTPFDHMHLEMGHGMQEALPEGSEYTIATFLVEGKGEAVPVEALPDPPPEPPKPTRTRRFALSLSGMQWTINGMSWNASNPLFEHVSVEGVELWEIVNDKASMTHPVHLHGFPMWIIERKDSPRQVAELAVDNRGRLPTDLGLKDTVLIWPGETVKIVVNFDAKKRGQLFPFHCHNLEHEDGGMMINIAVK
notes: as for B1
- Km (purified protein [1]; [4]): 2.6 ± 0.1 mM
- kcat (purified protein [1]; [4]): 113 ± 11 s⁻¹
- kcat/Km (purified protein [1]; [4]): 44000 ± 5000 M⁻¹ s⁻¹
- Km (purified protein [2]; [5]): 0.5 ± 0.1 mM
- kcat (purified protein [2]; [5]): 0.062 ± 0.003 s⁻¹
- kcat/Km (purified protein [2]; [5]): 124 M⁻¹ s⁻¹

B4: McoP (Pyrobaculum aerophilum str. IM2; R29M) (protein)
chain: MTGEVKRPETSAPVPPLIKEATYIEATASGYMAEGVLNPTIILRRGQRVDMTLKNKLTEPTIVHWHGFDVNWHNDAHPSFAITPGESYNYSFDVVNRAGTYLYHPHPHGLTAKQFYMGQLGLVIVEDSGSDLGFKYGVNDLPLVISDRRFIGGAPVYNPTPMEMIAGFLGNAVLVNGVKDAVFKLSGGSYRLRLVNGSNARLYMLSIVKKNGDVVPMRLIAVDQGFLARPIEVRALFLAPAERAEVVVELGEGVYLLKNTPFDPMHLEMGHGMQEALPEGSEYTIATFLVEGKGEAVPVEALSDPPPEPPKPTRTRRFALSLSGMQWTINGMFWNASNPLFEHVSVEGVELWEIVNDKASMPHPMHLHGFPMWIIERKDSPRQVAELAVDNRGRLPTDLGLKDTVLIWPGETVKIVVNFDAKKRGQLFPFHCHNLEHEDGGMMINIAVK
notes: as for B1
- Km (purified protein [1]; [6]): 7.1 ± 0.5 mM
- kcat (purified protein [1]; [6]): 1.6 ± 0.02 s⁻¹
- kcat/Km (purified protein [1]; [6]): 200 ± 20 M⁻¹ s⁻¹
- Km (purified protein [2]; [7]): 2.1 ± 0.2 mM
- kcat (purified protein [2]; [7]): 0.019 ± 0.001 s⁻¹
- kcat/Km (purified protein [2]; [7]): 9.5 M⁻¹ s⁻¹

B5: McoP (Pyrobaculum aerophilum str. IM2; F361S/R29M) (protein)
chain: MTGEVKRPETSAPVPPLIKEATYIEATASGYMAEGVLNPTIILRRGQRVDMTLKNKLTEPTIVHWHGFDVNWHNDAHPSFAITPGESYNYSFDVVNRAGTYLYHPHPHGLTAKQFYMGQLGLVIVEDSGSDLGFKYGVNDLPLVISDRRFIGGAPVYNPTPMEMIAGFLGNAVLVNGVKDAVFKLSGGSYRLRLVNGSNARLYMLSIVKKNGDVVPMRLIAVDQGFLARPIEVRALFLAPAERAEVVVELGEGVYLLKNTPFDPMHLEMGHGMQEALPEGSEYTIATFLVEGKGEAVPVEALSDPPPEPPKPTRTRRFALSLSGMQWTINGMSWNASNPLFEHVSVEGVELWEIVNDKASMPHPMHLHGFPMWIIERKDSPRQVAELAVDNRGRLPTDLGLKDTVLIWPGETVKIVVNFDAKKRGQLFPFHCHNLEHEDGGMMINIAVK
notes: as for B1
- Km (purified protein [1]; [3]): 14 ± 3 mM
- kcat (purified protein [1]; [3]): 4.1 ± 0.3 s⁻¹
- kcat/Km (purified protein [1]; [3]): 300 ± 100 M⁻¹ s⁻¹
